Assay results from patent US20040172686A1.

Target: yeast APC (anaphase promoting complex of Schizosaccharomyces pombe)
Assay: cell-based or functional assay

growth (optical density) of S. pombe nuc2ts at restrictive temperature, HBT cDNA against empty vector control: 4 fold
Substance: HOBBIT (HBT) protein of Arabidopsis thaliana (from UniProt Q8LGU6 1-744)
